Results on one molecule are retold here after article PMC11078181, “Genomic context– and H2AK119 ubiquitination–dependent inheritance of human Polycomb silencing” (Science Advances, 2024).

For the test, the target named is T1, Strep-RBBP7 (UniProt Q16576 1-425).
T1 construct: called full-length in the results; also called full-length RBB7; source: HEK293FT, transiently transfected, purified (Strep-Tactin Sepharose, eluted with desthiobiotin)
Nature of the test: pull-down; GST or GST-BCORL(S1474-G1644) (0.1 μM) on Glutathione Sepharose 4B with Strep-RBBP7 (0.1 μM), lysis buffer with 0.1% Triton X-100, overnight at 4°C; stain-free SDS-PAGE. Conditions: both partners purified.

T1 sequence (Q16576 whole entry): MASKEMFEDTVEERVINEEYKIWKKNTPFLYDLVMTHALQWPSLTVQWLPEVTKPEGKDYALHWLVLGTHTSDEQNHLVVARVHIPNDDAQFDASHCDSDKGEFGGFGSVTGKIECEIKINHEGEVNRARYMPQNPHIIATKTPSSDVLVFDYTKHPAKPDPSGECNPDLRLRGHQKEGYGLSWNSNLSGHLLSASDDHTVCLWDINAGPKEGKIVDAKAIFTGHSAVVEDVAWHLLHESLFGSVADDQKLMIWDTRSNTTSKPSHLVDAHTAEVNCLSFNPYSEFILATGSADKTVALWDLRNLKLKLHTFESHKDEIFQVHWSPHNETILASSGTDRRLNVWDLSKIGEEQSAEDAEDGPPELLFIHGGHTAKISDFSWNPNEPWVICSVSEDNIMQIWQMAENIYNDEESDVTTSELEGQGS

B1: GST-BCORL(S1474-G1644) (domain or fragment, UniProt Q5H9F3 1474-1644, looked up)
chain: SESPTARQIPPEARRLIVNKNAGETLLQRAARLGYKDVVLYCLQKDSEDVNHRDNAGYTALHEACSRGWTDILNILLEHGANVNCSAQDGTRPVHDAVVNDNLETIWLLLSYGADPTLATYSGQTAMKLASSDTMKRFLSDHLSDLQGRAEGDPGVSWDFYSSSVLEEKDG
notes: also called GST-BCORL fragment; source: E. coli BL21, purified (Glutathione Sepharose 4B, eluted with glutathione, dialysed); not shown: GST, N-terminal, kept
B1: the binding result is “binds”.
